Our source for the Kd values is patent US20230114801A1 (SYSTIMMUNE, published 2023).

Holding throughout (test): BLI (Octet), binder on AHC sensor, 100 nM human antigen, 1:1 fit
(BLI is a label-free optical method that tracks binding on a fibre tip over time.)

Test [1] concerns the target T1, human HER3 (human, UniProt P21860 20-643).
T1 construct: Soluble antigen in Octet; bought; also called human HER3 (Acro ER3-H5223)

The target in test [2] is T2, human CD3 (human, UniProt P07766 23-126; P04234 22-105).
T2 construct: also called His-tagged human CD3; human CD3 (Acro CDD-H52W1)

Test [3] has as its target T3, human EGFR (human, UniProt P00533 25-645, limits assumed).
T3 construct: Soluble antigen in Octet; construct not described

Test [4] has as its target T4, human PD-L1 (human, UniProt Q9NZQ7 19-238).
T4 construct: Soluble antigen in Octet; bought; also called human PD-L1 (Acro PD1-H5229)

Test [5] addresses T5, human 4-1BB (human, UniProt Q07011 24-186, limits assumed).
T5 construct: Soluble antigen in Octet; construct not described

B1: SI-75E2 (other)
chain 1: EIVLTQSPSTLSVSPGERATFSCRASQSIGTNIHWYQQKPGKPPRLLIKYASESISGIPDRFSGSGSGTEFTLTISSVQSEDFAVYYCQQNNNWPTTFGPGTKLTVLGGGGSGGGGSGGGGSGGGGSQVQLQQSGPGLVKPSETLSITCTVSGFSLTNYGVHWIRQAPGKGLEWLGVIWSGGNTDYNTPFTSRFTITKDNSKNQVYFKLRSVRADDTAIYYCARALTYYDYEFAYWGQGTLVTVSSGGGGSGGGGSEVQLVESGGGLVQPGGSLRLSCAASGFTISTNAMSWVRQAPGKGLEWIGVITGRDITYYASWAKGRFTISRDNSKNTLYLQMNSLRAEDTAVYYCARDGGSSAITSNNIWGQGTLVTVSSASTKGPSVFPLAPSSKSTSGGTAALGCLVKDYFPEPVTVSWNSGALTSGVHTFPAVLQSSGLYSLSSVVTVPSSSLGTQTYICNVNHKPSNTKVDKRVEPKSCDKTHTCPPCPAPEAAGGPSVFLFPPKPKDTLMISRTPEVTCVVVDVSHEDPEVKFNWYVDGVEVHNAKTKPREEQYNSTYRVVSVLTVLHQDWLNGKEYKCAVSNKALPAPIEKTISKAKGQPREPQVYTLPPSRDELTKNQVSLSCAVKGFYPSDIAVEWESNGQPENNYKTTPPVLDSDGSFFLVSKLTVDKSRWQQGNVFSCSVMHEALHNHYTQKSLSLSPG
chain 2: QSALTQPASVSGSPGQSITISCTGTSSDVGGYNFVSWYQQHPGKAPKLMIYDVSDRPSGVSDRFSGSKSGNTASLIISGLQADDEADYYCSSYGSSSTHVIFGGGTKVTVLGGGGSGGGGSGGGGSGGGGSQVQLQESGGGLVKPGGSLSLSCAASGFTFSSYWMSWVRQAPGKGLEWVANINRDGSASYYVDSVKGRFTISRDDAKNSLYLQMNSLRAEDTAVYYCARDRGVGYFDLWGRGTLVTVSSGGGGSGGGGSDVVMTQSPSTLSASVGDRVTINCQASESISSWLAWYQQKPGKAPKLLIYEASKLASGVPSRFSGSGSGTEFTLTISSLQPDDFATYYCQGYFYFISRTYVNSFGGGTKVEIKRTVAAPSVFIFPPSDEQLKSGTASVVCLLNNFYPREAKVQWKVDNALQSGNSQESVTEQDSKDSTYSLSSTLTLSKADYEKHKVYACEVTHQGLSSPVTKSFNRGECGGDKTHTCPPCPAPEAAGGPSVFLFPPKPKDTLMISRTPEVTCVVVDVSHEDPEVKFNWYVDGVEVHNAKTKPREEQYNSTYRVVSVLTVLHQDWLNGKEYKCAVSNKALPAPIEKTISKAKGQPREPQVYTLPPSRDELTKNQVSLWCLVKGFYPSDIAVEWESNGQPENNYKTTPPVLDSDGSFFLYSKLTVDKSRWQQGNVFSCSVMHEALHNRFTQKSLSLSPGGGGGSGGGGSDIQMTQSPSTLSASVGDRVTITCQASQSISSHLNWYQQKPGKAPKLLIYKASTLASGVPSRFSGSGSGTEFTLTISSLQPDDFATYYCQQGYSWGNVDNVFGGGTKVTVLGGGGSGGGGSGGGGSGGGGSEVQLLESGGGLVQPGGSLSLSCAASGFSFSSGYDMCWVRQAPGKGLEWIACIAAGSAGITYDANWAKGRFTISRDNSKNTLYLQMNSLRAEDTAVYYCARSAFSFDYAMDLWGQGTLVTVSS
notes: tetra-miniGNC; D1 αEGFR, D2 αHER3, D3 αCD3 (Fab), D5 αPD-L1; also called tetra-miniGNC (SI-75E2)
What is called Kd is the constant that tells how readily two partners part at equilibrium. In the case of B1, the Kd in test [1] was determined as 114 nM; in test [2], 22.1 nM; in test [3], 8.24 nM; in test [4], 1.36 nM.

B2: SI-75E1 (other)
chain 1: EIVLTQSPSTLSVSPGERATFSCRASQSIGTNIHWYQQKPGKPPRLLIKYASESISGIPDRFSGSGSGTEFTLTISSVQSEDFAVYYCQQNNNWPTTFGPGTKLTVLGGGGSGGGGSGGGGSGGGGSQVQLQQSGPGLVKPSETLSITCTVSGFSLTNYGVHWIRQAPGKGLEWLGVIWSGGNTDYNTPFTSRFTITKDNSKNQVYFKLRSVRADDTAIYYCARALTYYDYEFAYWGQGTLVTVSSGGGGSGGGGSEVQLVESGGGLVQPGGSLRLSCAASGFTISTNAMSWVRQAPGKGLEWIGVITGRDITYYASWAKGRFTISRDNSKNTLYLQMNSLRAEDTAVYYCARDGGSSAITSNNIWGQGTLVTVSSASTKGPSVFPLAPSSKSTSGGTAALGCLVKDYFPEPVTVSWNSGALTSGVHTFPAVLQSSGLYSLSSVVTVPSSSLGTQTYICNVNHKPSNTKVDKRVEPKSCDKTHTCPPCPAPEAAGGPSVFLFPPKPKDTLMISRTPEVTCVVVDVSHEDPEVKFNWYVDGVEVHNAKTKPREEQYNSTYRVVSVLTVLHQDWLNGKEYKCAVSNKALPAPIEKTISKAKGQPREPQVYTLPPSRDELTKNQVSLSCAVKGFYPSDIAVEWESNGQPENNYKTTPPVLDSDGSFFLVSKLTVDKSRWQQGNVFSCSVMHEALHNHYTQKSLSLSPGGGGGSGGGGSDVVMTQSPSSVSASVGDRVTITCQASQNIRTYLSWYQQKPGKAPKLLIYAAANLASGVPSRFSGSGSGTDFTLTISDLEPGDAATYYCQSTYLGTDYVGGAFGGGTKLTVLGGGGSGGGGSGGGGSGGGGSEVQLVESGGGLVQPGGSLRLSCTASGFTISSYHMQWVRQAPGKGLEYIGTISSGGNVYYASSARGRFTISRPSSKNTVDLQMNSLRAEDTAVYYCARDSGYSDPMWGQGTLVTVSS
chain 2: QSALTQPASVSGSPGQSITISCTGTSSDVGGYNFVSWYQQHPGKAPKLMIYDVSDRPSGVSDRFSGSKSGNTASLIISGLQADDEADYYCSSYGSSSTHVIFGGGTKVTVLGGGGSGGGGSGGGGSGGGGSQVQLQESGGGLVKPGGSLSLSCAASGFTFSSYWMSWVRQAPGKGLEWVANINRDGSASYYVDSVKGRFTISRDDAKNSLYLQMNSLRAEDTAVYYCARDRGVGYFDLWGRGTLVTVSSGGGGSGGGGSDVVMTQSPSTLSASVGDRVTINCQASESISSWLAWYQQKPGKAPKLLIYEASKLASGVPSRFSGSGSGTEFTLTISSLQPDDFATYYCQGYFYFISRTYVNSFGGGTKVEIKRTVAAPSVFIFPPSDEQLKSGTASVVCLLNNFYPREAKVQWKVDNALQSGNSQESVTEQDSKDSTYSLSSTLTLSKADYEKHKVYACEVTHQGLSSPVTKSFNRGECGGDKTHTCPPCPAPEAAGGPSVFLFPPKPKDTLMISRTPEVTCVVVDVSHEDPEVKFNWYVDGVEVHNAKTKPREEQYNSTYRVVSVLTVLHQDWLNGKEYKCAVSNKALPAPIEKTISKAKGQPREPQVYTLPPSRDELTKNQVSLWCLVKGFYPSDIAVEWESNGQPENNYKTTPPVLDSDGSFFLYSKLTVDKSRWQQGNVFSCSVMHEALHNRFTQKSLSLSPG
notes: tetra-miniGNC; D1 αEGFR, D2 αHER3, D3 αCD3 (Fab), D4 α4-1BB
In the case of B2, the Kd in test [1] came to 185 nM; in test [2] it was 20.3 nM; in test [5], 17.8 nM; in test [3] it was 8.9 nM.

B3: SI-75P6 (other)
chain 1: DVVMTQSPSTLSASVGDRVTINCQASESISSWLAWYQQKPGKAPKLLIYEASKLASGVPSRFSGSGSGTEFTLTISSLQPDDFATYYCQGYFYFISRTYVNSFGGGTKVEIKGGGGSGGGGSGGGGSGGGGSEVQLVESGGGLVQPGGSLRLSCAASGFTISTNAMSWVRQAPGKGLEWIGVITGRDITYYASWAKGRFTISRDNSKNTLYLQMNSLRAEDTAVYYCARDGGSSAITSNNIWGQGTLVTVSSGGGGSGGGGSQVQLQQSGPGLVKPSETLSITCTVSGFSLTNYGVHWIRQAPGKGLEWLGVIWSGGNTDYNTPFTSRFTITKDNSKNQVYFKLRSVRADDTAIYYCARALTYYDYEFAYWGQGTLVTVSSASTKGPSVFPLAPSSKSTSGGTAALGCLVKDYFPEPVTVSWNSGALTSGVHTFPAVLQSSGLYSLSSVVTVPSSSLGTQTYICNVNHKPSNTKVDKRVEPKSCDKTHTCPPCPAPEAAGGPSVFLFPPKPKDTLMISRTPEVTCVVVDVSHEDPEVKFNWYVDGVEVHNAKTKPREEQYNSTYRVVSVLTVLHQDWLNGKEYKCAVSNKALPAPIEKTISKAKGQPREPQVYTLPPSRDELTKNQVSLSCAVKGFYPSDIAVEWESNGQPENNYKTTPPVLDSDGSFFLVSKLTVDKSRWQQGNVFSCSVMHEALHNHYTQKSLSLSPGGGGGSGGGGSDVVMTQSPSSVSASVGDRVTITCQASQNIRTYLSWYQQKPGKAPKLLIYAAANLASGVPSRFSGSGSGTDFTLTISDLEPGDAATYYCQSTYLGTDYVGGAFGGGTKLTVLGGGGSGGGGSGGGGSGGGGSEVQLVESGGGLVQPGGSLRLSCTASGFTISSYHMQWVRQAPGKGLEYIGTISSGGNVYYASSARGRFTISRPSSKNTVDLQMNSLRAEDTAVYYCARDSGYSDPMWGQGTLVTVSS
chain 2: QSALTQPASVSGSPGQSITISCTGTSSDVGGYNFVSWYQQHPGKAPKLMIYDVSDRPSGVSDRFSGSKSGNTASLIISGLQADDEADYYCSSYGSSSTHVIFGGGTKVTVLGGGGSGGGGSGGGGSGGGGSQVQLQESGGGLVKPGGSLSLSCAASGFTFSSYWMSWVRQAPGKGLEWVANINRDGSASYYVDSVKGRFTISRDDAKNSLYLQMNSLRAEDTAVYYCARDRGVGYFDLWGRGTLVTVSSGGGGSGGGGSEIVLTQSPSTLSVSPGERATFSCRASQSIGTNIHWYQQKPGKPPRLLIKYASESISGIPDRFSGSGSGTEFTLTISSVQSEDFAVYYCQQNNNWPTTFGPGTKLTVLRTVAAPSVFIFPPSDEQLKSGTASVVCLLNNFYPREAKVQWKVDNALQSGNSQESVTEQDSKDSTYSLSSTLTLSKADYEKHKVYACEVTHQGLSSPVTKSFNRGECGGDKTHTCPPCPAPEAAGGPSVFLFPPKPKDTLMISRTPEVTCVVVDVSHEDPEVKFNWYVDGVEVHNAKTKPREEQYNSTYRVVSVLTVLHQDWLNGKEYKCAVSNKALPAPIEKTISKAKGQPREPQVYTLPPSRDELTKNQVSLWCLVKGFYPSDIAVEWESNGQPENNYKTTPPVLDSDGSFFLYSKLTVDKSRWQQGNVFSCSVMHEALHNRFTQKSLSLSPGGGGGSGGGGSDIQMTQSPSTLSASVGDRVTITCQASQSISSHLNWYQQKPGKAPKLLIYKASTLASGVPSRFSGSGSGTEFTLTISSLQPDDFATYYCQQGYSWGNVDNVFGGGTKVTVLGGGGSGGGGSGGGGSGGGGSEVQLLESGGGLVQPGGSLSLSCAASGFSFSSGYDMCWVRQAPGKGLEWIACIAAGSAGITYDANWAKGRFTISRDNSKNTLYLQMNSLRAEDTAVYYCARSAFSFDYAMDLWGQGTLVTVSS
notes: penta-miniGNC, IgG1 knobs-into-holes heterodimer; D1 αCD3, D2 αHER3, D3 αEGFR (Fab), D4 α4-1BB, D5 αPD-L1; also called penta-miniGNC (SI-75P6)
Consider B3, for which the Kd in test [2] amounted to 36.2 nM; in test [5], 37.3 nM; in test [3] it was 5.56 nM; in test [4] it was 1.45 nM.
